Test results from patent US7985736B2, “High throughput screen utilizing newly discovered intramolecular neuronal calcium channel interactions to discover new analgesics” (The John Hopkins University, priority 2004, dated 2011).

B1: NTB: NH3 terminus of N-type channel α1B subunit, residues 1-95, expressed as free peptide (SEQ ID NO.: 1) (protein, listed as Homo sapiens)
chain: MVRFGDELGGRYGGPGGGERARGGGAGGAGGPGPGGLQPGQRVLYKQSIAQRARTMALYNPIPVKQNCFTVNRSLFVFSEDNVVRKYAKRITEWP

Columns and labels:
I-II loop of α1B (I-IIB) = target: T1, I-II loop of α1B (I-IIB) (Homo sapiens, UniProt Q00975); assay: Yeast two-hybrid assay, NT peptides versus I-IIB; assay type: binding; details: NT segment in pGBKT7, I-IIB in pGADT7
T1 construct: I-IIB(357-482)-pGADT7 & lam-pGBKT7; expressed in transfected cells; host or cells: AH109 yeast
From the text: (§1) For yeast two-hybrid assays, a PCR fragment encoding one partner was fused, in-frame, with the GAL4 DNA binding domain (BD) in pGBKT7 (Clontech, Palo Alto, Calif.). The other element was fused, in-frame, with the GAL4 activation domain (AD) in pGADT7. For specific residues, see Supplemental Data (section 2). For electrophysiology, NT peptides lacking fluorophore tag were PCR amplified and cloned in pcDNA3. NTB peptide residues, 1-95; NTC residues, […]. Throughout, all segments subject to PCR or QuikChange were verified in their entirety by sequencing.
(§2) The Matchmaker GAL4 Two-Hybrid System 3 was used (Clontech, Palo Alto, Calif.). AH109 yeast were transformed with pGBKT7/pGADT7-based constructs (Yeastmaker Yeast Transformation System 2 kit, Clontech). After 5-8 days, growth on -leucine/-trytophan plates confirmed transformation of both plasmids. If partners interact, GAL4 BD/AD would complex, activating reporter genes (HIS3, ADE2, lacZ, and MEL1), for which assays are detailed in the Supplemental Data (section 2.1).
(§3) As a ‘medium’ stringency assay, expression of the lacZ gene was tested for encoding β-galactosidase, performing a filter lift with application of blue chromogenic substrate (Clontech-Laboratories, 1999). After the filter lift, original plates were re-grown for 2-3 days at 30° C. Filter paper was then used to replicate colonies onto a high stringency plate (-adenine/-histidine/-leucine/-trytophan). These plates were then incubated at 30° C. for 5-8 days. Survival on high stringency plates indicates production of both adenine and histidine, from transcription of the ADE2 and HIS3 genes, respectively. The percentage of colonies that turned blue in the filter lift assay, along with the percentage of colonies that survived on high stringency plates, was recorded for each pairing. Experiments were repeated at least three times. False positives were controlled for by testing each segment in pGBKT7 against empty pGADT7, and each segment in pGADT7 against lamin C in pGBKT7 (lamin C interacts with few proteins). Average sum of these backgrounds was subtracted from B to produce the net interaction parameter ΔB (FIG. 2).

Gβ1 = target: T2, Gβ1 (Bos taurus, UniProt P62871); assay: Yeast two-hybrid assay, channel fragments versus Gβ1; assay type: binding; details: Gβ1 in pGADT7, channel fragment in pGBKT7
T2 construct: expressed in transfected cells; host or cells: AH109 yeast
From the text: as §1, §2
as §3, with “Average sum of these backgrounds was subtracted from B to produce the net interaction parameter ΔB (FIG. 2).” left out

I-IIB-YFP = target: T3, I-IIB-YFP (Homo sapiens, UniProt Q00975); assay: Live-cell FRET two-hybrid assay versus I-IIB-YFP in HEK293 cells; assay type: binding
T3 construct: I-IIB residues, 357-482; expressed in transfected cells; host or cells: HEK293
From the text: To confirm preferential interaction of NTB with I-IIB a live-cell FRET two-hybrid assay was used (Erickson et al., 2003), in which NTB, NTC, I-IIB, and I-IIC were fused to either CFP or YFP, and the resulting fusion constructs expressed pair-wise in mammalian HEK293 cells. Given a Forster distance of ˜50 Å for the CFP/YFP pair (Patterson et al., 2000), the presence of FRET in individual cells would give a strong indication of interpeptide binding in the mammalian intracellular milieu. This indication is generally characterized by a low false-positive rate (Erickson et al., 2003), so that FRET assays provide a useful complement to yeast two-hybrid assays (Allen et al., 1995). […] SCFP (the signal derived from an image obtained with the CFP filter cube) is selective for CFP fluorescence and thereby gives an optical measure of NTB-CFP expression. Analogously, the SYFP signal, derived from preferential excitation and detection of YFP, estimates I-IIB-YFP levels. Finally, the SFRET signal reflects I-IIB-YFP fluorescence stimulated by FRET transfer from NTB-CFP, as well as secondary cross-talk signals. These three signals can be incorporated within a three-cube FRET algorithm to determine the strength of FRET interaction (“FRET ratio,” FR), independently of cross-talk (Erickson et al., 2001). FR adopts a value of unity in the absence of FRET and grows linearly with increasing FRET efficiency (Erickson et al., 2003). FR values for many individual cells are plotted as circles in FIG. 2Eb, with numerous determinations clearly greater than unity. Alternatively, FR values specified by a YFP-photobleaching methodology were also elevated above unity (triangles) (Bastiaens and Jovin, 1996). […] Consistent with yeast two-hybrid assays, then, FRET assays confirmed a selective propensity for NTB and I-IIB segments to associate.
Human m2 muscarinic acetylcholine receptor (AF498916) was engineered to reduce desensitization (Pals-Rylaarsdam and Hosey, 1997). QuikChange (Stratagene, La Jolla, Calif.) introduced cluster mutations, yielding m2R: residues 286-290 (STSVS/AAAVA), residues 307-311 (TVSTS/AVAAA). For FRET assays, base templates were ECFP/EYFP-tagged calmodulin constructs in pcDNA3 (Invitrogen, Carlsbad, Calif.), as described (Erickson et al., 2001). PCR-amplified channel segments or G proteins were substituted for calmodulin via upstream EcoRI and downstream NheI sites, creating in-frame fusions with fluorophore (ECFP/EYFP C-terminal to test molecules). NTC residues, 1-53; I-IIB residues, 357-482; and I-IIC residues, 436-554.
Experiments were performed mostly as previously described (Erickson et al., 2001; Erickson et al., 2003). Briefly, the FRET Ratio (FR) is the fractional increase in YFP emission due to FRET. […] For donor-dequenching analysis, EEFF is calculated as EEFF=^1−CFPpre/CFPpost, where CFPpre and CFPpost are the CFP emissions before/after 3 min YFP photobleaching. FR is determined by FR=(EEFF/[EYFP/ECFP])+1, where EYFP/ECFP is ratio of YFP and CFP molar extinction coefficients through 440 nm excitation bandpass of FRET cube (0.0574). For binding model analysis, Kd,EFF is the effective dissociation constant, related to actual Kd via filter/microscope optical characteristics. […]
Experiments were performed as described previously for the most part (Erickson et al., 2001; Erickson et al., 2003). Specifically, for quantitative analysis, all fluorescence from single cells were isolated through a pinhole in the image plane, and detected by photo-multiplier tube. In all three-cube FRET experiments, CFP levels were below a threshold where spurious, concentration-dependent FRET became significant (Stratton et al., 2004). Similarly, for donor-dequenching experiments, YFP levels were below an analogous threshold. […]

I-IIC = target: T4, I-IIC (Oryctolagus cuniculus, UniProt P15381); assay: Live-cell FRET two-hybrid assay versus I-IIC in HEK293 cells; assay type: binding, rabbit; details: compared with NTB/I-IIB pair
T4 construct: I-IIC residues, 436-554; expressed in transfected cells; host or cells: HEK293
From the text: To confirm preferential interaction of NTB with I-IIB a live-cell FRET two-hybrid assay was used (Erickson et al., 2003), in which NTB, NTC, I-IIB, and I-IIC were fused to either CFP or YFP, and the resulting fusion constructs expressed pair-wise in mammalian HEK293 cells. Given a Forster distance of ˜50 Å for the CFP/YFP pair (Patterson et al., 2000), the presence of FRET in individual cells would give a strong indication of interpeptide binding in the mammalian intracellular milieu. This indication is generally characterized by a low false-positive rate (Erickson et al., 2003), so that FRET assays provide a useful complement to yeast two-hybrid assays (Allen et al., 1995). […] SCFP (the signal derived from an image obtained with the CFP filter cube) is selective for CFP fluorescence and thereby gives an optical measure of NTB-CFP expression. Analogously, the SYFP signal, derived from preferential excitation and detection of YFP, estimates I-IIB-YFP levels. Finally, the SFRET signal reflects I-IIB-YFP fluorescence stimulated by FRET transfer from NTB-CFP, as well as secondary cross-talk signals. […]
Experiments were performed mostly as previously described (Erickson et al., 2001; Erickson et al., 2003). […] For donor-dequenching analysis, EEFF is calculated as EEFF=^1−CFPpre/CFPpost, where CFPpre and CFPpost are the CFP emissions before/after 3 min YFP photobleaching. […]

T3 sequence (Q00975 357-482): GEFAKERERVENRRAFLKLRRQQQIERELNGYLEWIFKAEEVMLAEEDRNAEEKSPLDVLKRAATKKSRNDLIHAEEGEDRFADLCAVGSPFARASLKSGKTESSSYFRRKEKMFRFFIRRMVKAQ
T1 sequence (Q00975 357-482): as above
T4 sequence (P15381 436-554): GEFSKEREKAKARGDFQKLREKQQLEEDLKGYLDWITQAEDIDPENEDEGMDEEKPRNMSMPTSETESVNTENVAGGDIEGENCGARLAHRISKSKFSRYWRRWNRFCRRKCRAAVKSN
T2 sequence (P62871 whole entry, the tested form may be a part): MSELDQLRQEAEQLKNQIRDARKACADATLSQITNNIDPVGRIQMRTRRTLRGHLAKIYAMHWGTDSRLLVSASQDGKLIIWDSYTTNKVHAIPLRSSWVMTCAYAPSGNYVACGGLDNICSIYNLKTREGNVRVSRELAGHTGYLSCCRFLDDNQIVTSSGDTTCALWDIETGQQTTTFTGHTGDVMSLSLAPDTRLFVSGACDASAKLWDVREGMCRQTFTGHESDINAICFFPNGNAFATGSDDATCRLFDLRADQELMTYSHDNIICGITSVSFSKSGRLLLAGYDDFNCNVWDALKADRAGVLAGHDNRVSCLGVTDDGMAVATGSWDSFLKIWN

| Molecule | Interaction with I-IIB (yeast two-hybrid, ΔB) (I-II loop of α1B (I-IIB)) | Interaction with Gβ1 (yeast two-hybrid) (Gβ1) | Kd,EFF relative to NTB/I-IIB (I-IIB-YFP; NTC-CFP versus I-IIB-YFP, lower-limit estimate) [fold] | Kd,EFF / affinity for I-IIB (FRET), in words (I-IIB-YFP; relative dissociation constant, HEK293 cells) | Kd,EFF for I-IIC (FRET), in words (I-IIC) |
| --- | --- | --- | --- | --- | --- |
| NTC: NH3 terminus of L-type channel α1C subunit, free peptide [reference compound] | failed to reveal an association | interact | ≥ 8 | larger by an order of magnitude or more | larger by an order of magnitude or more |
| B1 | positive | interact |  |  | larger by an order of magnitude or more |
